Test results published in PMC11836289, “A humanized NOVA1 splicing factor alters mouse vocal communications”.
Numbering of substitutions follows the chain as printed.

Experiments:
[1] = target: T1, NOVA1hu (humanized) (UniProt Q9JKN6 1-507, I197V); experiment: EMSA; text prints 105.83 ± 8.3; figure and source data 105.3; 10 mM HEPES (pH not stated), 3 mM MgCl2, 150 mM NaCl, 5% glycerol, 0.1 mM DTT, 0.1 U/ul RNase OUT, 10 mg/ml yeast tRNA, 1 mg/ml poly dI-dC, 22 C, 60 min; protein 0.5-2 pmol, RNA 0.08 pmol per reaction; 8% native gel; conditions: protein: recombinant; tags: GST tag (N-term) cleaved by PreScission; pGEX6p1 remnant; label: 32P; hairpin
T1 sequence: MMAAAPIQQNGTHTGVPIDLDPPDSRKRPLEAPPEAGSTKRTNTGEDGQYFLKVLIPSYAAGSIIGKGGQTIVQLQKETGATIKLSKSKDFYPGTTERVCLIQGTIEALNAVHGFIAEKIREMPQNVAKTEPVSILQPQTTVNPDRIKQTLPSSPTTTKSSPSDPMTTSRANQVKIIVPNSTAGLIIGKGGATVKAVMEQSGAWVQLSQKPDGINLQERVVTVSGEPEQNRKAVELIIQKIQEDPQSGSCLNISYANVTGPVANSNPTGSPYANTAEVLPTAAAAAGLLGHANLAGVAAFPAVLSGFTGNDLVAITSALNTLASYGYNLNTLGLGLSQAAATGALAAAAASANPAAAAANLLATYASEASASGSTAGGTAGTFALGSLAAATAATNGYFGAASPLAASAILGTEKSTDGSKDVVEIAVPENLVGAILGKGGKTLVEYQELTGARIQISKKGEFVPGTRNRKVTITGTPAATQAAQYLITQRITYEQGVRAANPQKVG

[2] = target: T2, NOVA1wt (UniProt Q9JKN6 1-507); experiment: EMSA; 10 mM HEPES (pH not stated), 3 mM MgCl2, 150 mM NaCl, 5% glycerol, 0.1 mM DTT, 0.1 U/ul RNase OUT, 10 mg/ml yeast tRNA, 1 mg/ml poly dI-dC, 22 C, 60 min; protein 0.5-2 pmol, RNA 0.08 pmol per reaction; 8% native gel; conditions: protein: recombinant; tags: GST tag (N-term) cleaved by PreScission; pGEX6p1 remnant; label: 32P; hairpin
T2 sequence: T1 sequence with V197I

B1: UCAU RNA probe (stem-loop) (structured_RNA)
RNA: CCUUAUCAUGCUGACUCACGUCAUUUCAUCUCAUCAAGGGAGUCAGUGGGAUA
- Kd [1]: 105 ± 8.3 nM
- Kd [2]: 105 ± 11.6 nM
